Data from patent publication US10287354 (Novartis, dated 2019).
Positions count from the first letter of the chain named.

B1: His-FLAG-FRB (wild-type FRB) (other)
chain: MGHHHHHHHHGSDYKDDDDKGSASRILWHEMWHEGLEEASRLYFGERNVKGMFEVLEPLHAMMERGPQTLKETSFNQAYGRDLMEAQEWCRKYMKSGNVKDLTQAWDLYYHVFRRISKTS
notes: also called wild type Flag-FRB
B2: His-FLAG-FRB E2032I (other)
chain: B1 chain with E37I
notes: The entry already carries the mutation
B3: His-FLAG-FRB T2098L (other)
chain: B1 chain with T103L
notes: as for B2
B4: His-FLAG-FRB E2032L (other)
chain: B1 chain with E37L
notes: as for B2

What follows are binders tested against T1, His-Avidin-FKBP (wild-type FKBP) (biotinylated) (assay: AlphaLISA direct binding assay: 30 nM FLAG-FRB and 30 nM biotinylated FKBP, everolimus titrated 1:3 from 600 nM (EC50 is of everolimus)).
T1 construct: also called biotinylated wild-type FKBP; biotinylated FKBP
T1 sequence (chain, as listed by the source limits assumed): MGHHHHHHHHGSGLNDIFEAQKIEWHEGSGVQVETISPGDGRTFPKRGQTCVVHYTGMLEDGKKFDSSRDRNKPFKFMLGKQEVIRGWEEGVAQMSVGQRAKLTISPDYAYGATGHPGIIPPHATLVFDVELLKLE
Procedure: (§1) FRB mutations were also ranked in an alternative assay format. […] All dilutions were made in 1× AlphaLISA Immunoassay buffer (PerkinElmer). Anti-Flag acceptor beads (PerkinElmer) were added at 10 ug/ml final concentration and incubated for one hour at room temperature. Streptavidin donor beads (PerkinElmer), were then added at a final concentration of 40 ug/ml and the plate was protected from light and incubated for 30 minutes at room temperature. The plate was then read on the PerkinElmer EnVision Multiplate reader equipped with the Alpha Module using excitation of 680 nm and a 570 nm Emission filter.

EC50	Binder
3.9 nM	B1
2.46 nM	B2
1.44 nM	B3
2.15 nM	B4

What follows are binders tested against T1, His-Avidin-FKBP (wild-type FKBP) (assay: AlphaLISA direct binding assay, EC50 relative to wild type FLAG-FRB).
Procedure: as §1

fold improvement over wild type FRB	Binder
1.5 to 2 fold	B2
3 fold	B3
1.5 to 2 fold	B4
